The labels stand for the following.
T1: human NPY2 receptor (human, UniProt P49146 1-381)
T1 construct: whole, on cells; also called hNPY2-R; hNPY2R
T1 sequence (looked up): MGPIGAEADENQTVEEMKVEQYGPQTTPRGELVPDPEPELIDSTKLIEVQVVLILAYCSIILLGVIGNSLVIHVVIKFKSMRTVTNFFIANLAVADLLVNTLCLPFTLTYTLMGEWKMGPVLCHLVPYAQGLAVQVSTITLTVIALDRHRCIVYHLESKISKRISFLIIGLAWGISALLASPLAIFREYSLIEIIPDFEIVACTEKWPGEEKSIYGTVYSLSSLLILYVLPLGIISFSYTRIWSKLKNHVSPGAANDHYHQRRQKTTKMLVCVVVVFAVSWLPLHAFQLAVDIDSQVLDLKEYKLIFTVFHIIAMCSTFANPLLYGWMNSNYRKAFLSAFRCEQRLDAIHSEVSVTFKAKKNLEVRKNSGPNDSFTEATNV

B1: Compound 68 (peptide)
peptide: Isovaleryl-APEK([Ahx-γGlu-C18 diacid])PEEDAEPEELQRYYVSLRHYYQWLTRQRY-NH2
SMILES: CC(C)CC(=O)N[C@@H](C)C(=O)N1CCC[C@H]1C(=O)N[C@@H](CCC(=O)O)C(=O)N[C@@H](CCCCNC(=O)CCCCCNC(=O)CC[C@H](NC(=O)CCCCCCCCCCCCCCCCC(=O)O)C(=O)O)C(=O)N1CCC[C@H]1C(=O)N[C@@H](CCC(=O)O)C(=O)N[C@@H](CCC(=O)O)C(=O)N[C@@H](CC(=O)O)C(=O)N[C@@H](C)C(=O)N[C@@H](CCC(=O)O)C(=O)N1CCC[C@H]1C(=O)N[C@@H](CCC(=O)O)C(=O)N[C@@H](CCC(=O)O)C(=O)N[C@@H](CC(C)C)C(=O)N[C@@H](CCC(N)=O)C(=O)N[C@@H](CCCNC(=N)N)C(=O)N[C@@H](Cc1ccc(O)cc1)C(=O)N[C@@H](Cc1ccc(O)cc1)C(=O)N[C@H](C(=O)N[C@@H](CO)C(=O)N[C@@H](CC(C)C)C(=O)N[C@@H](CCCNC(=N)N)C(=O)N[C@@H](Cc1c[nH]cn1)C(=O)N[C@@H](Cc1ccc(O)cc1)C(=O)N[C@@H](Cc1ccc(O)cc1)C(=O)N[C@@H](CCC(N)=O)C(=O)N[C@@H](Cc1c[nH]c2ccccc12)C(=O)N[C@@H](CC(C)C)C(=O)N[C@H](C(=O)N[C@@H](CCCNC(=N)N)C(=O)N[C@@H](CCC(N)=O)C(=O)N[C@@H](CCCNC(=N)N)C(=O)N[C@@H](Cc1ccc(O)cc1)C(N)=O)[C@@H](C)O)C(C)C
B2: Compound 77 (peptide)
peptide: Isovaleryl-APAK([Ahx-γGlu-C18 diacid])PEEDASPEELQRYYVSLRHYQNWLTRQRY-NH2
SMILES: CC(C)CC(=O)N[C@@H](C)C(=O)N1CCC[C@H]1C(=O)N[C@@H](C)C(=O)N[C@@H](CCCCNC(=O)CCCCCNC(=O)CC[C@H](NC(=O)CCCCCCCCCCCCCCCCC(=O)O)C(=O)O)C(=O)N1CCC[C@H]1C(=O)N[C@@H](CCC(=O)O)C(=O)N[C@@H](CCC(=O)O)C(=O)N[C@@H](CC(=O)O)C(=O)N[C@@H](C)C(=O)N[C@@H](CO)C(=O)N1CCC[C@H]1C(=O)N[C@@H](CCC(=O)O)C(=O)N[C@@H](CCC(=O)O)C(=O)N[C@@H](CC(C)C)C(=O)N[C@@H](CCC(N)=O)C(=O)N[C@@H](CCCNC(=N)N)C(=O)N[C@@H](Cc1ccc(O)cc1)C(=O)N[C@@H](Cc1ccc(O)cc1)C(=O)N[C@H](C(=O)N[C@@H](CO)C(=O)N[C@@H](CC(C)C)C(=O)N[C@@H](CCCNC(=N)N)C(=O)N[C@@H](Cc1c[nH]cn1)C(=O)N[C@@H](Cc1ccc(O)cc1)C(=O)N[C@@H](CCC(N)=O)C(=O)N[C@@H](CC(N)=O)C(=O)N[C@@H](Cc1c[nH]c2ccccc12)C(=O)N[C@@H](CC(C)C)C(=O)N[C@H](C(=O)N[C@@H](CCCNC(=N)N)C(=O)N[C@@H](CCC(N)=O)C(=O)N[C@@H](CCCNC(=N)N)C(=O)N[C@@H](Cc1ccc(O)cc1)C(N)=O)[C@@H](C)O)C(C)C
B3: Compound 78 (peptide)
peptide: Isovaleryl-APAK([Ahx-γGlu-C18 diacid])PEEDASPEELQRYYVSLRHYYQWLTRQRY-NH2
SMILES: CC(C)CC(=O)N[C@@H](C)C(=O)N1CCC[C@H]1C(=O)N[C@@H](C)C(=O)N[C@@H](CCCCNC(=O)CCCCCNC(=O)CC[C@H](NC(=O)CCCCCCCCCCCCCCCCC(=O)O)C(=O)O)C(=O)N1CCC[C@H]1C(=O)N[C@@H](CCC(=O)O)C(=O)N[C@@H](CCC(=O)O)C(=O)N[C@@H](CC(=O)O)C(=O)N[C@@H](C)C(=O)N[C@@H](CO)C(=O)N1CCC[C@H]1C(=O)N[C@@H](CCC(=O)O)C(=O)N[C@@H](CCC(=O)O)C(=O)N[C@@H](CC(C)C)C(=O)N[C@@H](CCC(N)=O)C(=O)N[C@@H](CCCNC(=N)N)C(=O)N[C@@H](Cc1ccc(O)cc1)C(=O)N[C@@H](Cc1ccc(O)cc1)C(=O)N[C@H](C(=O)N[C@@H](CO)C(=O)N[C@@H](CC(C)C)C(=O)N[C@@H](CCCNC(=N)N)C(=O)N[C@@H](Cc1c[nH]cn1)C(=O)N[C@@H](Cc1ccc(O)cc1)C(=O)N[C@@H](Cc1ccc(O)cc1)C(=O)N[C@@H](CCC(N)=O)C(=O)N[C@@H](Cc1c[nH]c2ccccc12)C(=O)N[C@@H](CC(C)C)C(=O)N[C@H](C(=O)N[C@@H](CCCNC(=N)N)C(=O)N[C@@H](CCC(N)=O)C(=O)N[C@@H](CCCNC(=N)N)C(=O)N[C@@H](Cc1ccc(O)cc1)C(N)=O)[C@@H](C)O)C(C)C
B4: Compound 69 (peptide)
peptide: Isovaleryl-APEK([Ahx-γGlu-C18 diacid])PPADASPEETQRYYVSLRHYYNWLTRQRY-NH2
SMILES: CC(C)CC(=O)N[C@@H](C)C(=O)N1CCC[C@H]1C(=O)N[C@@H](CCC(=O)O)C(=O)N[C@@H](CCCCNC(=O)CCCCCNC(=O)CC[C@H](NC(=O)CCCCCCCCCCCCCCCCC(=O)O)C(=O)O)C(=O)N1CCC[C@H]1C(=O)N1CCC[C@H]1C(=O)N[C@@H](C)C(=O)N[C@@H](CC(=O)O)C(=O)N[C@@H](C)C(=O)N[C@@H](CO)C(=O)N1CCC[C@H]1C(=O)N[C@@H](CCC(=O)O)C(=O)N[C@@H](CCC(=O)O)C(=O)N[C@H](C(=O)N[C@@H](CCC(N)=O)C(=O)N[C@@H](CCCNC(=N)N)C(=O)N[C@@H](Cc1ccc(O)cc1)C(=O)N[C@@H](Cc1ccc(O)cc1)C(=O)N[C@H](C(=O)N[C@@H](CO)C(=O)N[C@@H](CC(C)C)C(=O)N[C@@H](CCCNC(=N)N)C(=O)N[C@@H](Cc1c[nH]cn1)C(=O)N[C@@H](Cc1ccc(O)cc1)C(=O)N[C@@H](Cc1ccc(O)cc1)C(=O)N[C@@H](CC(N)=O)C(=O)N[C@@H](Cc1c[nH]c2ccccc12)C(=O)N[C@@H](CC(C)C)C(=O)N[C@H](C(=O)N[C@@H](CCCNC(=N)N)C(=O)N[C@@H](CCC(N)=O)C(=O)N[C@@H](CCCNC(=N)N)C(=O)N[C@@H](Cc1ccc(O)cc1)C(N)=O)[C@@H](C)O)C(C)C)[C@@H](C)O
B5: Compound 80 (peptide)
peptide: Isovaleryl-APEK([Ahx-γGlu-C18 diacid])PEEDASEAELQRYYVSLRHYYNWLTRQRY-NH2
SMILES: CC(C)CC(=O)N[C@@H](C)C(=O)N1CCC[C@H]1C(=O)N[C@@H](CCC(=O)O)C(=O)N[C@@H](CCCCNC(=O)CCCCCNC(=O)CC[C@H](NC(=O)CCCCCCCCCCCCCCCCC(=O)O)C(=O)O)C(=O)N1CCC[C@H]1C(=O)N[C@@H](CCC(=O)O)C(=O)N[C@@H](CCC(=O)O)C(=O)N[C@@H](CC(=O)O)C(=O)N[C@@H](C)C(=O)N[C@@H](CO)C(=O)N[C@@H](CCC(=O)O)C(=O)N[C@@H](C)C(=O)N[C@@H](CCC(=O)O)C(=O)N[C@@H](CC(C)C)C(=O)N[C@@H](CCC(N)=O)C(=O)N[C@@H](CCCNC(=N)N)C(=O)N[C@@H](Cc1ccc(O)cc1)C(=O)N[C@@H](Cc1ccc(O)cc1)C(=O)N[C@H](C(=O)N[C@@H](CO)C(=O)N[C@@H](CC(C)C)C(=O)N[C@@H](CCCNC(=N)N)C(=O)N[C@@H](Cc1c[nH]cn1)C(=O)N[C@@H](Cc1ccc(O)cc1)C(=O)N[C@@H](Cc1ccc(O)cc1)C(=O)N[C@@H](CC(N)=O)C(=O)N[C@@H](Cc1c[nH]c2ccccc12)C(=O)N[C@@H](CC(C)C)C(=O)N[C@H](C(=O)N[C@@H](CCCNC(=N)N)C(=O)N[C@@H](CCC(N)=O)C(=O)N[C@@H](CCCNC(=N)N)C(=O)N[C@@H](Cc1ccc(O)cc1)C(N)=O)[C@@H](C)O)C(C)C
B6: Compound 73 (peptide)
peptide: Isovaleryl-APEK([Ahx-γGlu-C18 diacid])PEEAASPEELQRYYVALRHYYNWLTRQRY-NH2
SMILES: CC(C)CC(=O)N[C@@H](C)C(=O)N1CCC[C@H]1C(=O)N[C@@H](CCC(=O)O)C(=O)N[C@@H](CCCCNC(=O)CCCCCNC(=O)CC[C@H](NC(=O)CCCCCCCCCCCCCCCCC(=O)O)C(=O)O)C(=O)N1CCC[C@H]1C(=O)N[C@@H](CCC(=O)O)C(=O)N[C@@H](CCC(=O)O)C(=O)N[C@@H](C)C(=O)N[C@@H](C)C(=O)N[C@@H](CO)C(=O)N1CCC[C@H]1C(=O)N[C@@H](CCC(=O)O)C(=O)N[C@@H](CCC(=O)O)C(=O)N[C@@H](CC(C)C)C(=O)N[C@@H](CCC(N)=O)C(=O)N[C@@H](CCCNC(=N)N)C(=O)N[C@@H](Cc1ccc(O)cc1)C(=O)N[C@@H](Cc1ccc(O)cc1)C(=O)N[C@H](C(=O)N[C@@H](C)C(=O)N[C@@H](CC(C)C)C(=O)N[C@@H](CCCNC(=N)N)C(=O)N[C@@H](Cc1c[nH]cn1)C(=O)N[C@@H](Cc1ccc(O)cc1)C(=O)N[C@@H](Cc1ccc(O)cc1)C(=O)N[C@@H](CC(N)=O)C(=O)N[C@@H](Cc1c[nH]c2ccccc12)C(=O)N[C@@H](CC(C)C)C(=O)N[C@H](C(=O)N[C@@H](CCCNC(=N)N)C(=O)N[C@@H](CCC(N)=O)C(=O)N[C@@H](CCCNC(=N)N)C(=O)N[C@@H](Cc1ccc(O)cc1)C(N)=O)[C@@H](C)O)C(C)C

*1 amine or outer side, *2 acyl side, *3 side chain or, on linkers, in order; H or OH if unused. Side-chain parts run from the residue outwards. The star is where a group is joined. C18 diacid = O=C(O)CCCCCCCCCCCCCCCCC(=O)*; γGlu = O=C(O)[C@H](CCC(=O)[*:2])N[*:1]; Isovaleryl = CC(C)CC(=O)*; Ahx = NCCCCCC(=O)O

For 6 molecules, Ki results are on record in patent US20260015399A1 (Boehringer Ingelheim, published 2026).

As a reminder, the Ki is a measure of affinity in units of concentration, obtained from inhibition or displacement.

The assay has as its target T1, human NPY2 receptor. Put plainly: RLB: displacement of 125I-PYY(1-36) from hNPY2R membranes. In general terms: Loss of bound radioactivity is the signal in a displacement assay; it reports binding, not function.
The molecule B1 yielded a Ki of 9.07 nM.

As for B2, the Ki stood at 9.73 nM.

As to B3, the affinity, expressed as Ki, was 1.8 nM.

In turn, B4 returned a Ki of 0.54 nM. This Ki is about 3.3-fold lower than that of the molecule before.

For the molecule B5, the Ki turned out to be 4.62 nM.

Turning to B6, the Ki turned out to be 2.16 nM.
